Experimental findings from publication PMC4467669, “Targeted inhibition of the Shroom3–Rho kinase protein–protein interaction circumvents Nogo66 to promote axon outgrowth” (BMC Neuroscience, 2015) are described below.

Residue numbers refer to the chain shown, from its start.

The target of one experiment is T1, Shroom3 (Mus musculus, UniProt Q9QXN0).
T1 construct: SD2 domain (aa 1,563–1,986)
T1 sequence (Q9QXN0 1563-1986): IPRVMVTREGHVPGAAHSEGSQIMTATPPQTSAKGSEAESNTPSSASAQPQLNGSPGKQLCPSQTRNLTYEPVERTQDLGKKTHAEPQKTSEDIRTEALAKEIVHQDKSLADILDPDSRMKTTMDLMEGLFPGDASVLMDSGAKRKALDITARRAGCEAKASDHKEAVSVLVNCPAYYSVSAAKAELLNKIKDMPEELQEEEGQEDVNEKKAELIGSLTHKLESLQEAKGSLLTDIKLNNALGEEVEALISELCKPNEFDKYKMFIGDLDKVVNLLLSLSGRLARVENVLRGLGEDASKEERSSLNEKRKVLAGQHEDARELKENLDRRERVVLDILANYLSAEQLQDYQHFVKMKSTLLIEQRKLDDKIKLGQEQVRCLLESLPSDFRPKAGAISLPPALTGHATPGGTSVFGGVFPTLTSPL
T1 sequence (P70336 698-957 partner): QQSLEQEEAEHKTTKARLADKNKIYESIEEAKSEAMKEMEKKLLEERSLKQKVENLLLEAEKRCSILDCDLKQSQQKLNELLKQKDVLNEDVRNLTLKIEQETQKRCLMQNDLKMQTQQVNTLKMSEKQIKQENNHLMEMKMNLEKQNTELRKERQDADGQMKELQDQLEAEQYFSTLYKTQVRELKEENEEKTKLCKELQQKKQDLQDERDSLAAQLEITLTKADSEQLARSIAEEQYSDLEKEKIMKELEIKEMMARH
The experiment is described as follows: ELISA of purified SD2 / biotin-R2-C1 interaction; wash-out irreversibility, DTT block and Cys-to-Ala mutagenesis. Type of experiment: binding.

The target in experiment [1] is T2, SD2 Cys254Ala Cys379Ala (ELISA) (mouse, UniProt Q9QXN0 1563-1986, Cys254Ala (SD2 numbering; Cys 1816 in full length mouse Shroom3) | Cys379Ala …).
T2 construct: Shroom3 SD2 domain, mouse, aa 1,563-1,986; also called double mutant SD2 Cys254Ala Cys379Ala; double Cys to Ala mutant
T2 sequence (looked up): T1 sequence (Q9QXN0 1563-1986) with C254A, C379A
The experiment is described as follows: ELISA; 150 ng SD2 (wild type or mutant) immobilised on 384-well high-binding plates; CCG-17444 dilutions 30 min at 25°C, then 10 ng biotin-R2C1 (1.5 ng in Figure 4) 1 h at 25°C; buffer A (20 mM Tris HCl, 150 mM KCl, 0.05% Triton X-100, 0.5% BSA, pH 7.9); NeutrAvidin-HRP; also with 1 mM DTT. The settings on record: both partners purified.

In a further experiment the target is T3, SD2 Cys379Ala (ELISA) (mouse, UniProt Q9QXN0 1563-1986, Cys379Ala (SD2 numbering; mouse Shroom3 Cys1941)).
T3 construct: Shroom3 SD2 domain, mouse, aa 1,563-1,986; SD2 Cys379 corresponds to mouse Shroom3 Cys1941 (AAF13269)
T3 sequence (looked up): T1 sequence (Q9QXN0 1563-1986) with C379A
The experiment is described as above. Particulars: both partners purified.

Another experiment has as its target T4, SD2 Cys254Ala (ELISA) (mouse, UniProt Q9QXN0 1563-1986, Cys254Ala (SD2 numbering; Cys 1816 in full length mouse Shroom3)).
T4 construct: Shroom3 SD2 domain, mouse, aa 1,563-1,986; also called Cys254Ala mutant
T4 sequence (looked up): T1 sequence (Q9QXN0 1563-1986) with C254A
The experiment is described as above. Particulars: both partners purified.

Experiment [2] has as its target T5, Shroom3 SD2 domain (aa 1,563–1,986), GST removed (mouse, UniProt Q9QXN0 1563-1986).
T5 construct: Shroom3 SD2 domain, mouse, aa 1,563-1,986; Expressed as GST-SD2 from pGST-SD2; also called WT SD2; SD2 wild type; source: E. coli, purified (glutathione agarose; GST removed with TEV protease)
T5 sequence (looked up): T1 sequence (Q9QXN0 1563-1986)
The experiment is described as follows: ELISA; 0.5 µg SD2 immobilised on 96-well Immulon 2B high binding plates; Biotin-R2C1 0 to 1,778 nM (11 points) for 1 h at 25°C in TBS-1 (20 mM Tris HCl, 150 mM KCl, 0.5% Triton X-100, pH 7.9) with 0.5% BSA; NeutrAvidin-HRP; apparent Kd, hyperbolic fit. Particulars: both partners purified.

Experiment [3] concerns the target T5, Shroom3 SD2 domain (aa 1,563–1,986), …. The experiment is described as follows: ELISA; competition: SD2 immobilised; 100 ng Biotin-R2C1 incubated 1 h at 25°C with unlabeled R2C1 (1–10 µg); NeutrAvidin-HRP. The settings on record: both partners purified.
Experiment [4] has as its target T6, GST-SD2 wild type (mouse Shroom3 aa 1,563–1,986) (mouse, UniProt Q9QXN0 1563-1986).
T6 construct: Shroom3 SD2 domain, mouse, aa 1,563-1,986; also called wild type GST-SD2; WT SD2
T6 sequence (looked up): T1 sequence (Q9QXN0 1563-1986)
The experiment is described as follows: pull-down; wild type or mutant GST-SD2 (5 μg) bound to glutathione agarose resin, incubated overnight with His-Sumo-R2-C1 (12.5 μg); washed 3× Triton IP buffer, 1× PBS; SDS-PAGE, Coomassie G-250. Particulars: both partners purified.

For experiment [5], the target named is T7, GST-SD2 Cys254Ala (mouse Shroom3 aa 1,563–1,986, Cys1816Ala) (mouse, UniProt Q9QXN0 1563-1986, Cys254Ala (SD2 numbering; Cys 1816 in full length mouse Shroom3)).
T7 construct: Shroom3 SD2 domain, mouse, aa 1,563-1,986; Probably made in E. coli like the wild type; also called mutant GST-SD2; Cys254Ala SD2
T7 sequence (looked up): T1 sequence (Q9QXN0 1563-1986) with C254A
Described as above. Particulars: both partners purified.

Consider `CC1(C)CC(=O)C2=C(C1)Nc1[nH]c(=S)[nH]c(=O)c1C2c1cccs1` (centres unmarked) [CCG-17444], for which, at Shroom3, half-maximal inhibition (IC50) required 12.4 ± 2.3 µM.

B1: Biotinylated HisSUMO-R2C1 (mouse ROCK II aa 698–957) (domain or fragment, UniProt P70336 698-957, looked up)
chain: T1 sequence (P70336 698-957 partner)
modifications: biotin (NHS-PEO4-biotin; on average four biotin molecules per 1 mol of protein)
notes: No removal of the His-SUMO tag is described; also called Biotin-R2C1; biotinylated R2-C1; source: E. coli, purified (HisPur Ni-NTA), biotinylated with NHS-PEO4-biotin
Take B1: the binding result (in experiment [1]; in the experiment with SD2 Cys379Ala (ELISA); in the experiment with SD2 Cys254Ala (ELISA)) was “binds” each time. Further, in experiment [2], the Kd is 0.0049 µM.

B2: HisSUMO-R2C1 (mouse ROCK II aa 698–957), unlabeled (domain or fragment, UniProt P70336 698-957, looked up)
chain: T1 sequence (P70336 698-957 partner)
notes: also called Unlabeled R2-C1; unlabeled R2C1; source: E. coli, purified (HisPur Ni-NTA)
For B2, the binding result in experiment [3], in experiment [4] and in experiment [5] was “binds” in each case.
